In patent US20130011378A1, “Stable formulations of a hyaluronan-degrading enzyme” (priority 2011, published 2013):
Like-named read-outs stand apart in the source and are kept apart here.

Key:
[1] = molecular target: T1, rHuPH20 (Homo sapiens, UniProt P38567); assay: Determination of hyaluronidase activity of rHuPH20, turbidimetric assay (Example 2, variant not specified); type: biochemical; conditions: for Effect on rHuPH20 enzymatic activity: stabilizer screening in rHuPH20/insulin formulation, semi-quantitative in comparison with NaCl, samples incubated at 30° C. for about one week
T1 construct: made in house; host or cells: CHO cells (DG44 CHO, HZ24 plasmid, clone 2B2)
T1 sequence (P38567 36-482): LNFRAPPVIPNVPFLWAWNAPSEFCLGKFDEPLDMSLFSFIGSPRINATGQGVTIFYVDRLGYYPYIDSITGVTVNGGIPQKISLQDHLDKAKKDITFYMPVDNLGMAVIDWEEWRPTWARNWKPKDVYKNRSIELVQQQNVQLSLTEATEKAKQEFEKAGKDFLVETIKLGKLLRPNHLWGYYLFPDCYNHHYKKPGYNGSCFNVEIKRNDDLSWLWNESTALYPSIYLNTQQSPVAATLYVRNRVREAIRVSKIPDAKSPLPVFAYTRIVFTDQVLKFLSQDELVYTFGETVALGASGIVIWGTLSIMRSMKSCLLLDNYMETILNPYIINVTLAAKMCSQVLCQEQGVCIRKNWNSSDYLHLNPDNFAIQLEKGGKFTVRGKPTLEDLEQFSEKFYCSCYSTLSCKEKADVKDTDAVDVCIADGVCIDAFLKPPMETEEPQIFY

[2] = RP-HPLC: insulin apparent solubility / percent recovery
Description: Apparent solubility was measured as the percent insulin recovery as compared to the initial formulations/conditions.
Samples were prepared by withdrawing 100 μL from each vial at every time point and centrifuging prior to loading. Samples were stored in an autosampler at 4° C. prior to use, and were considered stable for 3 days after preparation. All samples were tested in duplicate.
For insulin, 20 μL was injected for each HPLC run.
To determine the apparent solubility, the peak area of insulin/insulin analog main peak and desamido peak were integrated and combined together to calculate the percentage relative to the standards. […] The data were processed using Design-Expert® 7.0 (StatEase) and the “historical data” feature. Insulin percent purity was expressed as the percent of main insulin versus all insulin species.

[3] = Lysyl lysine as buffer: titration curve and effect of temperature on pH; type: physicochemical; conditions: rHuPH20/insulin glulisine formulations, 30-105 mM lysyl lysine
[4] = system: Aspergillus niger, Pseudomonas aeruginosa, E. coli, Staphylococcus aureus and Candida albicans; assay: Antimicrobial (preservative) effectiveness test, USP / EPA / EPB criteria; type: cell-based
Text: One of skill in the art is familiar with the antimicrobial preservative effectiveness test and standards to be meet under the USP and EPA or EPB in order to meet minimum requirements. […] The preservative properties of the composition are deemed adequate if, under the conditions of the test, there is a significant fall or no increase, as specified in Table 6, below, in the number of microorganisms in the inoculated composition after the times and at the temperatures prescribed. The criteria for evaluation are given in terms of the log reduction in the number of viable microorganism as compared to the initial sample or the previous timepoint.
The number of viable microorganisms (cfu) in each sample is determined by plate count or membrane filtration. Finally, the cfu for each sample is compared to either the inoculum or the previous sample and log reduction is determined.
The tests were performed according to the guidance of EP and USP by a contract analytical laboratory (Quadrants Scientific, Inc., San Diego, Calif.). […] Raw data (CFU/mL) was converted to a log 10 unit reduction from the measured inoculum. […]
The tests were performed according to the guidance of EP and USP by a contract analytical laboratory (Quadrants Scientific, Inc., San Diego, Calif. and Lancaster Laboratories, Lancaster, Pa.). […] Raw data (CFU/mL) was converted to a log 10 unit reduction from the measured inoculum. […]

[5] = reported; cited from earlier work
[6] = molecular target: T1, rHuPH20; assay: RP-HPLC: rHuPH20 oxidation peaks (ox-1, ox-2); type: physicochemical; conditions: 40 mM methionine, rHuPH20/insulin formulation, 30° C., 5 weeks
Text: The stability of hyaluronan degrading enzymes in a composition, such as in the co-formulations provided herein, also can be assessed using other methods and assays known in the art. […] Percent recovery is the relative percentage of the hyaluronidase in the co-formulation over time and at various storage conditions, as compared to a reference sample. […] An increase in particle size and a decrease in the melting temperature indicates denaturation and subsequent aggregation of the hyaluronidase. […] Other methods known to one of skill in the art that can be used to determine the stability of the hyaluronidase in the co-formulations provided herein, include polyacrylamide gel electrophoresis (PAGE), immunoblotting, nuclear magnetic resonance (NMR) spectroscopy, mass spectrometry, circular dichroism (CD) and dye-based fluorescence assays.
The formulations varied in the surfactant and surfactant concentration and the buffer (either histidine or phosphate).
Methionine oxidation can be prevented by addition of free methionine as a scavenger to react with potential oxidative compounds.

[7] = molecular target: T1, rHuPH20; assay: Differential scanning calorimetry: Tm of rHuPH20; type: physicochemical; conditions: in the presence of […] m-cresol
[8] = stabilizer screening in rHuPH20/insulin formulation, semi-quantitative in comparison with NaCl, RP-HPLC, samples stored at 5° C.

Molecule: Cl.Cl.NCCCCC(N)C(=O)NC(CCCCN)C(=O)O (stereo not shown) [Lys-Lys, Lys-Lys dihydrochloride]
- Effect on rHuPH20 enzymatic activity [1]: Strong stabilizer
- effect on rHuPH20 stability in comparison with NaCl ([1]; stabilizer screening, 30° C. about one week, […] m-cresol, 0.2% phenol): stabilized rHuPH20 more than NaCl
- Effect on insulin solubility [2, 8]: Reduced solubility
- Effect on insulin solubility ([2]; stabilizer screening, samples stored at 5° C.): caused severe precipitation of insulin
- temperature effect (dpH/dT) [3]: −0.033 U/° C.

Molecule: [Cl-].[Na+] [NaCl]
- Effect on antimicrobial effectiveness ([4]; component concentration (80-100 mM)): Neutral

Molecule: NC(CO)(CO)CO [Tris]
- Effect on rHuPH20 enzymatic activity [1]: No effect
- Effect on insulin solubility [2]: No effect
- temperature effect (dpH/dT) [5]: −0.028 U/° C.

Molecule: CSCC[C@H](N)C(=O)O [methionine]
- rHuPH20 enzymatic activity ([1]; 1 mM methionine, 30° C. for one month, starting 650 U/mL): 525 U/mL
- rHuPH20 enzymatic activity ([1]; 20 mM methionine, 30° C. for one month, starting 650 U/mL): 522 U/mL
- Effect on rHuPH20 enzymatic activity [1]: No effect
- Effect on insulin solubility [2, 8]: No effect
- ox-1 peak of rHuPH20 compared to formulations without methionine [6]: significantly smaller
- Effect on antimicrobial effectiveness ([4]; component concentration (50-100 mM), formulations with 100 U/mL insulin or analog and 5 μg/mL rHuPH20): Neutral

B1: rHuPH20: secreted soluble recombinant human PH20 expressed in CHO cells; nucleic acid encodes amino acids 36-482 of SEQ ID NO:1 (protein, listed as Homo sapiens)
chain: T1 sequence (P38567 36-482)
modifications: precursor human PH20
- rHuPH20 enzymatic activity ([1]; 2-8° C., 5 Months, pH 7.0, NaCl 50 mM): 494.4796
- rHuPH20 enzymatic activity ([1]; 2-8° C., 5 Months, pH 7.0, NaCl 80 mM): 575.3274
- rHuPH20 enzymatic activity ([1]; 2-8° C., 5 Months, pH 7.0, NaCl 110 mM): 615.3546
- rHuPH20 enzymatic activity ([1]; 2-8° C., 5 Months, pH 7.0, NaCl 140 mM): 582.4274
- rHuPH20 enzymatic activity ([1]; 2-8° C., 5 Months, pH 7.2, NaCl 50 mM): 481.6035
- rHuPH20 enzymatic activity ([1]; 2-8° C., 5 Months, pH 7.2, NaCl 80 mM): 566.2521
- rHuPH20 enzymatic activity ([1]; 2-8° C., 5 Months, pH 7.2, NaCl 110 mM): 593.2027
- rHuPH20 enzymatic activity ([1]; 2-8° C., 5 Months, pH 7.2, NaCl 140 mM): 585.9948
- rHuPH20 enzymatic activity ([1]; 2-8° C., 5 Months, pH 7.4, NaCl 50 mM): 526.6628
- rHuPH20 enzymatic activity ([1]; 2-8° C., 5 Months, pH 7.4, NaCl 80 mM): 564.7769
- rHuPH20 enzymatic activity ([1]; 2-8° C., 5 Months, pH 7.4, NaCl 110 mM): 618.3856
- rHuPH20 enzymatic activity ([1]; 2-8° C., 5 Months, pH 7.4, NaCl 140 mM): 585.9813
- rHuPH20 enzymatic activity ([1]; 2-8° C., 5 Months, pH 7.6, NaCl 50 mM): 508.0571
- rHuPH20 enzymatic activity ([1]; 2-8° C., 5 Months, pH 7.6, NaCl 80 mM): 546.4209
- rHuPH20 enzymatic activity ([1]; 2-8° C., 5 Months, pH 7.6, NaCl 110 mM): 581.6326
- rHuPH20 enzymatic activity ([1]; 2-8° C., 5 Months, pH 7.6, NaCl 140 mM): 594.6197
- rHuPH20 enzymatic activity ([1]; 2-8° C., 9 Months, pH 7.0, NaCl 50 mM): 436.5115
- rHuPH20 enzymatic activity ([1]; 2-8° C., 9 Months, pH 7.0, NaCl 80 mM): 513.9692
- rHuPH20 enzymatic activity ([1]; 2-8° C., 9 Months, pH 7.0, NaCl 110 mM): 551.0218
- rHuPH20 enzymatic activity ([1]; 2-8° C., 9 Months, pH 7.0, NaCl 140 mM): 554.6513
- rHuPH20 enzymatic activity ([1]; 2-8° C., 9 Months, pH 7.2, NaCl 50 mM): 451.8324
- rHuPH20 enzymatic activity ([1]; 2-8° C., 9 Months, pH 7.2, NaCl 80 mM): 518.0740
- rHuPH20 enzymatic activity ([1]; 2-8° C., 9 Months, pH 7.2, NaCl 110 mM): 553.1847
- rHuPH20 enzymatic activity ([1]; 2-8° C., 9 Months, pH 7.2, NaCl 140 mM): 536.7846
- rHuPH20 enzymatic activity ([1]; 2-8° C., 9 Months, pH 7.4, NaCl 50 mM): 466.1871
- rHuPH20 enzymatic activity ([1]; 2-8° C., 9 Months, pH 7.4, NaCl 80 mM): 509.9032
- rHuPH20 enzymatic activity ([1]; 2-8° C., 9 Months, pH 7.4, NaCl 110 mM): 560.4847
- rHuPH20 enzymatic activity ([1]; 2-8° C., 9 Months, pH 7.4, NaCl 140 mM): 542.4534
- rHuPH20 enzymatic activity ([1]; 2-8° C., 9 Months, pH 7.6, NaCl 50 mM): 464.8964
- rHuPH20 enzymatic activity ([1]; 2-8° C., 9 Months, pH 7.6, NaCl 80 mM): 515.3382
- rHuPH20 enzymatic activity ([1]; 2-8° C., 9 Months, pH 7.6, NaCl 110 mM): 531.9202
- rHuPH20 enzymatic activity ([1]; 2-8° C., 9 Months, pH 7.6, NaCl 140 mM): 523.5385
- time rHuPH20 stable ([1]; 5° C., […] m-cresol, […] phenol, pH 7.0-7.6, 50-140 mM NaCl): 12 months
- reduction of Tm of rHuPH20 by DSC [7]: about 2 °C
